Results from patent publication US20030027246A1, “Immunogenic peptides derived from prostate-specific membrane antigen (PSMA) and uses thereof” (priority 2000, published 2003).

Molecular target: membrane-bound HLA-A0201 molecule on T2 cells (human)
Experiment: T2 cell HLA-A0201 stabilisation at 125.0 µM peptide, BB7.2 staining, flow cytometry
Details: remark: other sources report otherwise

Fluorescence Index (FI) | Binder
0.7 | ELAHYDVLL [CLP-330]
1.3 | VLAGGFFLL [CLP-328]
